Measurements as given in US20240239894A1 (AstraZeneca / MedImmune, published 2024).
Substitutions are numbered along the chain they refer to.

T1: huBTN1A1 (human, UniProt Q13410 27-242, limits assumed)
T1 construct: Sourced antigen; construct not described; also called Human BTN1A1
T1 sequence (looked up): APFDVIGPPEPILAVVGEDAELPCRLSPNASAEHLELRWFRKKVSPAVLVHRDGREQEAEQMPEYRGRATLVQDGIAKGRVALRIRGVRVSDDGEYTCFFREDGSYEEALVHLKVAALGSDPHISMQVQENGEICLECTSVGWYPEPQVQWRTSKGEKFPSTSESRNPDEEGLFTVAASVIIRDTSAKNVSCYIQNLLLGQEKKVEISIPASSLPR

T2: Murine B7-H4-Fc (Mouse B7H4 ECD, Fc_6His) (mouse, UniProt Q7TSP5 25-257)
T2 construct: extracellular domain; also called mouse B7-H4-Fc; FcHis6 tagged murine B7-H4
T2 sequence (Q7TSP5 whole entry, looked up): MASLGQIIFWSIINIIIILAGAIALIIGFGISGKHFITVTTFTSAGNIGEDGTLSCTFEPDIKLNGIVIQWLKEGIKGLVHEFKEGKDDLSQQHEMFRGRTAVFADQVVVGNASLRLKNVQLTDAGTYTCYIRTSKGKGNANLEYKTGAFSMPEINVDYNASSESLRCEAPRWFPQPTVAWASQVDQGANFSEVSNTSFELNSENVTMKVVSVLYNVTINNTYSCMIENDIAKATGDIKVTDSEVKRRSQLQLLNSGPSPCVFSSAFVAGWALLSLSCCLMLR

T3: huB7-H2 (human, UniProt O75144 19-258)
T3 construct: Sourced antigen; construct not described; also called Human B7-H2
T3 sequence (looked up): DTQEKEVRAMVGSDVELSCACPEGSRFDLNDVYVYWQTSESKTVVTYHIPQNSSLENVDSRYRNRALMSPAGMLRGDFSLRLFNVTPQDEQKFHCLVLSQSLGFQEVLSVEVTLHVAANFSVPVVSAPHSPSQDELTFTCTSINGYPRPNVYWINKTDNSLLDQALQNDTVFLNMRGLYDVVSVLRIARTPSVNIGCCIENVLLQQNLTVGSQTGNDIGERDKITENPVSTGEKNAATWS

T4: huHHLA2 (human, UniProt Q9UM44 23-344)
T4 construct: Sourced antigen; construct not described; also called Human HHLA2
T4 sequence (looked up): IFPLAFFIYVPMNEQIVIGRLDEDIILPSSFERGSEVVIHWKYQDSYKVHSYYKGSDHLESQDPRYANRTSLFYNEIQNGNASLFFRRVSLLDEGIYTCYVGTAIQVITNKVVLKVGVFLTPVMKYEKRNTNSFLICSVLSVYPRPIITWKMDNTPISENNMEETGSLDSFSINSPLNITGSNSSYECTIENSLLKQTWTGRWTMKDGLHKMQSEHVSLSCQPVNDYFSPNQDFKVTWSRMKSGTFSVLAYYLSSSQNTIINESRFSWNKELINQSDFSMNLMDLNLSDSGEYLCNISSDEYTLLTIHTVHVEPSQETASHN

T5: huB7-H3 (human, UniProt Q5ZPR3 29-461, limits assumed)
T5 construct: Sourced antigen; construct not described; also called Human B7-H3
T5 sequence (looked up): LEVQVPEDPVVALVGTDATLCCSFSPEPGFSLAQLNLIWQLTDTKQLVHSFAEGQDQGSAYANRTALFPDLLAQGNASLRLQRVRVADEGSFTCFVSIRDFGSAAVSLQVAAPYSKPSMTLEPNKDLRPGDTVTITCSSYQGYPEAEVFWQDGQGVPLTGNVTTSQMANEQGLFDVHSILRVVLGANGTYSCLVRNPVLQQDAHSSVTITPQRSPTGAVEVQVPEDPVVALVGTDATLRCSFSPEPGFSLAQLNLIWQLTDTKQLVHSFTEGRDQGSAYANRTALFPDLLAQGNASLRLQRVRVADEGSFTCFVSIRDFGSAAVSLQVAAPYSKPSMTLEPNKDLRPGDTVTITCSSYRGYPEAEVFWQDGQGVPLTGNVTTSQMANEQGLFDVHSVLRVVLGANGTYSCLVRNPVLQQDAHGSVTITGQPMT

T6: huBTNL3 (human, UniProt Q6UXE8 18-237, limits assumed)
T6 construct: Sourced antigen; construct not described; also called Human BTNL3
T6 sequence (looked up): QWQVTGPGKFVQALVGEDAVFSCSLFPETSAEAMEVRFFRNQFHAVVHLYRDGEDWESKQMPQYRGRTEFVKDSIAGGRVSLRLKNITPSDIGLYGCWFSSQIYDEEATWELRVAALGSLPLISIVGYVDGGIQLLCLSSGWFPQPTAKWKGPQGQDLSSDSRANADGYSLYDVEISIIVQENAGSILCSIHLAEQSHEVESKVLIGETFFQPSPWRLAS

T7: huBTN2A1 (human, UniProt Q7KYR7 29-248, limits assumed)
T7 construct: Sourced antigen; construct not described; also called Human BTN2A1
T7 sequence (looked up): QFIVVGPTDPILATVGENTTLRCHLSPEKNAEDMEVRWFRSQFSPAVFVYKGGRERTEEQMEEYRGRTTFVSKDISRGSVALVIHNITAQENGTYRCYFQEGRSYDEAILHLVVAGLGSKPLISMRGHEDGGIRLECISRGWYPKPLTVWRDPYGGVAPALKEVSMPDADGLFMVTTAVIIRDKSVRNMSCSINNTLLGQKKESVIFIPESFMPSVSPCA

T8: Human B7-H4-Fc (Human B7H4 ECD, Fc_6His) (human)
T8 construct: also called FcHis6 tagged human B7-H4
T8 sequence (Q7Z7D3 whole entry, looked up): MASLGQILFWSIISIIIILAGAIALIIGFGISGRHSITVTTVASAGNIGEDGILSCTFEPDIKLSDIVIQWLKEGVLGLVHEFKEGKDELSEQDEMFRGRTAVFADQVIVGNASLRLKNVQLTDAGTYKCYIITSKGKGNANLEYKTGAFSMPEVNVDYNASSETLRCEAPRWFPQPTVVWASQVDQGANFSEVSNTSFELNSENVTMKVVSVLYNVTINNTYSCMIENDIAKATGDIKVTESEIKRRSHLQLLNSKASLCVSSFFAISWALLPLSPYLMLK

B1: human ZY0EP0-C07 (antibody, V domains shown)
VH: QVQLVESGGVLVKPGGSLRLSCAASGFTLSDYYMSWIRQAPGMGLEWVSYISSSGSTIYYTDSVKGRFTISRDSAKNSLYLQMNSLRAEDTAVYYCARDGVGFDYWGQGTLVTVSS
VL: EIVLTQSPGTLSLFPGERATLSCRASQSVSSSYLAWYQQKPGQSPRLLIYAASSRATGIPDRFSGSGSGTDFTLTISRLEPEDFAVYYCQQYGSSPLYTFGQGTKLEIK
B2: ZY0EP0-C07 murine IgG1 (antibody, V domains shown)
VH: B1 VH
VL: B1 VL
notes: also called ZY0EPO-C07
B3: ZY0EOB-F05 murine IgG1 (antibody, V domains shown)
VH: QVQLQESGPGLVKPSQTLSLTCTVSDGSISSGGYYWSWIRQHPGKGLEWIGNIYYSGSTYYNPSLKSRVTISVDTSKNQFSLKLNSVTAADTAVYYCATEKALATVTPSGYENYYTVDVWGQGTTVTVSS
VL: DIQLTQSPSFLSASVGDRVTITCWASQGISSYLAWYQQKPGKAPKLLIYAASTLQSGVPSRFSGSGSGTEFTLTISSLQPEDFATYYCQHLNSYPLTFGGGTKVEIK
B4: human ZY0EOB-F05 (antibody, V domains shown)
VH: B3 VH
VL: B3 VL
B5: human ZY0EO5-E07 (antibody, V domains shown)
VH: B3 VH with D26G, N85S, T99R, T105S, T107I, T116V
VL: B3 VL with D17G, S30A, S31G
B6: ZY0EO5-E07 murine IgG1 (antibody, V domains shown)
VH: B3 VH with D26G, N85S, T99R, T105S, T107I, T116V
VL: B3 VL with D17G, S30A, S31G
notes: also called ZY0E05-E07; E05-E07

The binders below were run against T1, huBTN1A1 (assay: ELISA, absorbance 450 nm, antigen human BTN1A1 GST).

| binding result | Binder |
| --- | --- |
| no binding (tested: 10 µg/ml (antigen)) | B1 |
| no binding (tested: 10 µg/ml (antigen)) | B2 |
| no binding (tested: 10 µg/ml (antigen)) | B3 |
| no binding (tested: 10 µg/ml (antigen)) | B4 |
| no binding (tested: 10 µg/ml (antigen)) | B5 |
| no binding (tested: 10 µg/ml (antigen)) | B6 |

The binders below were run against T2, Murine B7-H4-Fc (Mouse B7H4 ECD, …) (assay: HTRF binding, murine IgG1).

| EC50 [nM] | Max | Binder |
| --- | --- | --- |
| 0.49 | 1910 | B2 |
| 0.38 | 2190 | B3 |
| 0.73 | 1700 | B6 |

The binders below were run against T9, Cyno B7-H4-Fc (Cyno B7H4 ECD, FcTM_6His) (cynomolgus monkey) (assay: HTRF binding, murine IgG1).
T9 construct: extracellular domain; also called cynomolgus B7-H4-Fc

| EC50 [nM] | Max | Binder |
| --- | --- | --- |
| 1.28 | 1250 | B2 |
| 0.32 | 2400 | B3 |
| 0.71 | 1700 | B6 |

These binders were tested against T10, huBTN3A2 (human, UniProt P78410 30-248, limits assumed) (assay: ELISA, absorbance 450 nm, antigen human BTN3A2 GST).
T10 construct: Sourced antigen; construct not described; also called Human BTN3A2
T10 sequence (P78410 30-248 limits assumed): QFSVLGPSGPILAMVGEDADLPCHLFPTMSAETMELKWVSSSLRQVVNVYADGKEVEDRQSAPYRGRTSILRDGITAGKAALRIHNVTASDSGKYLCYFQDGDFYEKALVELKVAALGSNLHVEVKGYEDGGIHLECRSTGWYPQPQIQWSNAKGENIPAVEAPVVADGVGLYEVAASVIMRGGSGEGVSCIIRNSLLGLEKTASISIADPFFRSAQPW

| Binder | binding result |
| --- | --- |
| B1 | no binding (tested: about 10 µg/ml (antigen)) |
| B2 | no binding (tested: about 10 µg/ml (antigen)) |
| B3 | no binding (tested: about 10 µg/ml (antigen)) |
| B4 | no binding (tested: about 10 µg/ml (antigen)) |
| B5 | no binding (tested: about 10 µg/ml (antigen)) |
| B6 | no binding (tested: about 10 µg/ml (antigen)) |

These binders were tested against T3, huB7-H2 (assay: ELISA, absorbance 450 nm, antigen human B7-H2 (ECD) F10H).

| binding result | Binder |
| --- | --- |
| no binding (tested: 10 µg/ml (antigen)) | B1 |
| no binding (tested: 10 µg/ml (antigen)) | B2 |
| no binding (tested: 10 µg/ml (antigen)) | B3 |
| no binding (tested: 10 µg/ml (antigen)) | B4 |
| no binding (tested: 10 µg/ml (antigen)) | B5 |
| no binding (tested: 10 µg/ml (antigen)) | B6 |

These binders were tested against T4, huHHLA2 (assay: ELISA, absorbance 450 nm, antigen human HHLA2 GST).

| Binder | binding result |
| --- | --- |
| B1 | no binding (tested: about 10 µg/ml (antigen)) |
| B2 | no binding (tested: about 10 µg/ml (antigen)) |
| B3 | no binding (tested: about 10 µg/ml (antigen)) |
| B4 | no binding (tested: about 10 µg/ml (antigen)) |
| B5 | no binding (tested: about 10 µg/ml (antigen)) |
| B6 | no binding (tested: about 10 µg/ml (antigen)) |

What follows are binders tested against T5, huB7-H3 (assay: ELISA, absorbance 450 nm, antigen human B7-H3 (ECD) Fc).

| binding result | Binder |
| --- | --- |
| no binding | B1 |
| no binding | B2 |
| no binding | B3 |
| no binding | B4 |
| no binding | B5 |
| no binding | B6 |

The binders below were run against T6, huBTNL3 (assay: ELISA).

| binding result | Binder |
| --- | --- |
| no binding | B2 |
| no binding | B3 |
| no binding | B6 |

Each binder was assayed against T7, huBTN2A1 (assay: ELISA).

| binding result | Binder |
| --- | --- |
| no binding | B2 |
| no binding | B3 |
| no binding | B6 |

Each binder was assayed against T11, huB7-H1 (human, UniProt Q9NZQ7 19-238) (assay: ELISA, absorbance 450 nm, antigen human B7-H1(ECD) F10H).
T11 construct: Sourced antigen; construct not described; also called Human B7-H1
T11 sequence (Q9NZQ7 19-238 limits assumed): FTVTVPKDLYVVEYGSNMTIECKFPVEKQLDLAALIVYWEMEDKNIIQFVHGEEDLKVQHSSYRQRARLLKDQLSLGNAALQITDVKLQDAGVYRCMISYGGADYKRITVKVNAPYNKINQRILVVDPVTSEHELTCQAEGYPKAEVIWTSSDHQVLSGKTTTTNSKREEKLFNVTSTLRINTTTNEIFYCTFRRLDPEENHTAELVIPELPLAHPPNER

| binding result | Binder |
| --- | --- |
| no binding (tested: 10 µg/ml (antigen)) | B1 |
| no binding (tested: 10 µg/ml (antigen)) | B2 |
| no binding (tested: 10 µg/ml (antigen)) | B3 |
| no binding (tested: 10 µg/ml (antigen)) | B4 |
| no binding (tested: 10 µg/ml (antigen)) | B5 |
| no binding (tested: 10 µg/ml (antigen)) | B6 |

These binders were tested against T8, Human B7-H4-Fc (Human B7H4 ECD, Fc_6His) (assay: HTRF binding, murine IgG1).

| EC50 [nM] | Max | Binder |
| --- | --- | --- |
| 0.95 | 1740 | B2 |
| 0.3 | 3020 | B3 |
| 0.68 | 2150 | B6 |
